The nanobody polyreactivity screen of Harvey et al. (2022)

Assay: yeast display, Sf9 membrane polyspecificity reagent, FACS + sequencing; frameworks hold sequencing errors
Outline: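 A nanobody's polyreactivity label depends on the gate it was sorted from. Yeast display cells were stained with 10% biotinylated, detergent-solubilized Sf9 membrane reagent for 1 hour at 4 °C, enriched on streptavidin microbeads and sorted by FACS. The low and high (top ~1%) gates were set on anti-HA fluorescence for expression and streptavidin fluorescence for reagent binding.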

Row | Sequence | polyreactivity (PSR sort gate)
1 | QVQLVESGGGLVQAGGSLRLSCAASGRTFGGNAMGWYRQAPGKERELVATIRSSSSTNYADSVKGRFTISRDNAKNTVYVQMNSLKQEDTAVYYCNAARPDALNTYGYGFDYWGQGTQVTVSS | low polyreactivity
2 | QVQLVESGGGLVQAGGSLRLSCAASGSIFRGYAMGWYRQAPGRERELVAAISRSGGSTYYADSVKGRFTISRDNAKNTVYLQMNSLKPEDTAVYYCAALLRGRYRMYYWGQGTQVTVSS | high polyreactivity
3 | QVQLVESGGGLVQAGGSLRLSCAPSGRTFGVYAMGWYRQAPGKERELVATISFNVASTYADSVKGRFTISRDNAKNTVYLQMNSLKPEDTAVYYCAVTAVRPLPLDSGYDYWGQGTQVTVSS | low polyreactivity
4 | QVQLVESGGGLVQAGGSLRLSCAASGSIFDYNTMGWYRQAPGKEREFVAAISSSGGGTSYADSVKGRFTISRDNAKNTVYLQMNSLKPEDTAVYYCAALIKLTPYQRQYWKYRAYYYWGQGSQVTVSS | high polyreactivity
5 | QFQLVESGGGLVQAGGSLRLSCAASGITIRWYAMGWYRQAPGKERELVAGISSRGDSTYYADSVKGRFTISRDNAKNTVYLQMNSLKREDTAVYYCAAPGSSYRGRGYDYWGQGTQVTVSS | high polyreactivity
6 | QVQLVESGGGLVQAGGSLRLSCAASGFTFYLYTMGWYRQAPGKERELVAAISWRGGGTYYADSVKGRFTISRDNAKNTVYLQMNSLKPEDTAVYYCATVRTYARNDYWGQGTQVTVSS | high polyreactivity
7 | QVQLVESGGGLVQAGGSLRLSCAASGRIFSFYAMGWYRQSPGKERELVATISDGGATTYYADSVKGRFTISRDNAKNTVYLQMNSLKPEDTAVYYCAADKRGRPGLPDYDSWGQGTQVTVSS | low polyreactivity
8 | QVQLVESGGGLVQAGGSLRLSCAASGLTLFYYVMGWYRQAPGKERELVAANTTSGGRTYYADSVKGRFTISRDNAKHTVYLQMNSLKPEDTAVYYCAAQSSVAYIHTPTYRYDYWGQGTQVTVSS | high polyreactivity
9 | QVQLVESGGGLVQAGGSLSLSCAASGFTFSRYAMGWYRQAPGKERELVAAISDDGGSTYYADSVKGRFTISRDNAKNTVYLQMNSLKPEDTAVYYCAARFYWSYGYWGQGTQVTVSS | high polyreactivity
10 | QVQLVESGGGLVQAGGSLRLSCAASGIIFQQYAMGWYRQAPGKERELVAAITYSGDGTYYADSVKGRFTISRDNAKNTVYLQMNSLKPEDTAVYYCAADVGYFKSDYWGQGTQVTVSS | low polyreactivity
11 | QDQHVESGGGLVQAGGSLRLSCAASGLIFNNYAMGWYRQAPGKERELVAPISRTGTSTYYADSVKGRFTISRDNAKNTVYLQMNSLKPEDTAVFYCNAVIQLFEWGWDDEYDYWGQGTQVTVSS | low polyreactivity
12 | QVQLVESGGGLVQAGGSLRLSCAASGSIFFSYAMGWYRQAPGKERELVAAISTSGGNTYYADSVKGRFTISRDNAKNTVYVQMNSLKPEDTAVYYCNARGSYPPYRSYGYWGQCTQVTVSS | low polyreactivity
13 | QVQLVESGGGLVQAGGSLRLSCAASGSIFWSNAMGWYRQAPGKERELVAAITWSGGSTYADSVKGRFTISRDNAKNTVYLQMNSLKPEDTAVYYCATDYPWAWFESDYWGQGTQVTVSS | low polyreactivity
14 | QVQLVESGGGLVQAGGSLRLSCAASGSTFDYNAMGWYRQAPGKERELVAAISRGGNTDYADSVKGRFTISRDNAKNSVYLQMNSLKPEDTAVYYCAADALLEWFDVAYFAYEYWGQGTQVTVSS | low polyreactivity
15 | QVQLVESGGGLVQAGGSLRLSCAASGRIFRPYAMGWYRQAPGKERELVATITGSGGTTYYADSVKGRFTISRDNAKNSVYFQMNSLKPEDTAVYYCNVDPRSDIIPMDYWGQGTQVTVSS | low polyreactivity
16 | QVHLVESGGGLVQAGGSLRLSCAASGSTFTPYAMGWYRQAPGKERELVAAITWRTGSTRYADSVKGRFTISRDNAKNTVYLQMNSLKPEDTAVYYCAAKVPRFGAPGVNYWGQGTQVTVSS | high polyreactivity
17 | QVQLVDSGGGLVQEGGSLRLRCAASGYTFDWYAMGWYRQAPGKERELVAAINSGGGTYYADSVKGRFTISRDNAKNSVYLQMNSLKPEDTAVYYCAKYTYDYWGQGTQVTVSS | low polyreactivity
18 | QVQLVESGGGLVQAGGSLRLSCPASGFTFYYYAMGWYRQAPGKERELVAAISYSGGSTYYADSVKGRFTISRDNAKNTVYLQMNRLKPEDTAVYYCAADLSTYRRGFDYWGQGTQVTVSS | high polyreactivity
19 | QVQLVESGGGLVQAGGSLRLSCAASGITFRSYAMGWYRQAPGKERELVATISWSGGITYYADSVKGRFTISRDNAKNTVYLQMNSLKPEDTAVYYCAKASQSWGRDDYYYWGQGTQVTVSS | low polyreactivity
20 | QVQLVESGGGLVQAGGSLRLSCAASGSTFNTYAMGWYRQAPGKERELVAAITFSVGSTYYADSVKGRFTISRDNAKNTVYLQMNSLKPEDTAVYYCARRGAYTGRYDYWGQGTQVTVSS | high polyreactivity
21 | QVQLVESGGGLVQAGGSLRLSCAASGGILNPNAMGWYRQAPGKERELVAAISNGGGTKYADSVKWRFTISRDNAKNTVYLQMNSLKPEDTAVYYCAARQWWSYDYWGKGTQVTVSS | high polyreactivity
22 | QVQLVESGGGLVQAGGSLRLSCAASGFIFIPNTMGWYRQAPGKERELVASGSTYYADSVKGRFTISRDNAKNTVYLQLNSLKPEDTAVYYCAARYHRYSSEFDYWGQGTQVTVSS | low polyreactivity

Row | Sequence | polyreactivity (PSR sort gate)
23 | QVQLVESGGGLVQAGGSLRLSCPASGSTFGPYAMGWYRQAPGKERELVATISGSGSSTYYADSVKGRFTISRDNAKNTVDLQMNSLKPEDTAFYYCATDLYFDLRYDYWGQGTQVTVSS | low polyreactivity
24 | QGQLVESGGGLVQAGGSLRLSCAASGFIFFYYAMGWYRQAPRKERELVATISANGGNTYYADSVKGRFTISRDNAKNTVYLQMNSLKPEDTAVSYCARYTWYLRDWQWYYWGDEDYWGQGTQVTVSS | high polyreactivity
25 | QVQLVESGGGLVQAGGSLRLSCADSGLIFYRYAMGWYRQAPGTERELVAAISGSVGSTYADSVKGRFTISRDNAKNTVYLQMNSLKPEDTVVYYCSRETYRSYGAYDYWGLGTQVTVSS | low polyreactivity
26 | QVQLVESGGGLVKAGGSLRLSCAASGFIFGYNDMGGYRQAPGKERELVAAITSRGDRTYYADSVKGRFTISRDNAKNTVYLQMNSLKPEDTAVYYCAAESQAYSLYWGQGTQLTVSS | high polyreactivity
27 | QVQLVESGGGLVQAGGSLRLSCAASGRTFKKYAMGWYRQAPGKERELVAAITSSGGSTYYADSVKGRFTISRDNAKNTVYLQMNSLKPEDTAVYYCNTVYRHRQRAKYNYWGQGTQVTVSS | high polyreactivity
28 | QVQLVESGGGLVQAGGSLRLSCAASGRTFGLNGMGWYRQAPGKEREFVATITGSGTSTYYADSVKGRFTISRDNAKNTVYLQMNSLKPEDTAVYYCAALSGLWGYHYYHEYYYWGQGTQVTVSS | low polyreactivity
29 | QVQLVESGGGLVQAGGSLRLSCAASGSTFTGNAMGWYRQAPGKERELVASIRSGATTYYADSVKGRFTISRDNAKNTVYLQMNSLKPEDTAVYYCAKRYLGRRGDVYYWGQGTQVTVSS | high polyreactivity
30 | QVHLVESGGGLVQAGGGLRLSSAASGFIFSPNAMGWYRQAPGKEREYVAAISYSGTSTSYADSVKGRFTISRDNAKNTVYLQMNSLKPEDTAVYYCAAGRSNSYSPRRRVTYGYNYWGQGTQVTVSS | high polyreactivity
31 | QVQLVESGGGLVQAGGSLRLSCAASGSIFESNAMGWYRQAPGKERELVADITYRGTRTYYADSVKGRFTISRDNAKNTVYLQMNSLKPEDTAVYYCAVWQDHYDWGQGTQVTVSS | low polyreactivity
32 | QVQLVESGGGLVQAGGSLRLSCAASGSTFGSYAMGWYRQAPGKERELVAAISRGGGSTYYADSVKGRFTISRDNAKNTVYLQMNSLKPEDTAVYYCAATAQNDSRYGSRYYYWGQGTQVTVSS | high polyreactivity
33 | QVQLVESGGGLVHAGGSLSLSCAASGSIFPGYAMGWYRQAPGKERELVAGITWSDARTYYADSVKGRFTISRDNAKNTVYLQMNSLKPEDTAVYYCAADYYYYERDYWGKGTQVTVSS | low polyreactivity
34 | QVQLVESGGGLVQAGGSLRLSCAASGRIFKYYVMGWYRQAPGKERELVATISSGSGTNYADSVKGRFTISRDNAKNTVYLQMNSLKPEDTAVYYCAARWTPRVRGYNYWGQGTLVTVSS | high polyreactivity
35 | QVQLVESGGGLVQAGGSLRLSCAASGFIFKINAMGWYRQAPGKERELVAAINWTGGNTYYADSVKGRFTISRDNAKNTVYLQMNSLKPEDTAVYYCAAEFDVGWTWDYYWGQGTQVTVSS | high polyreactivity
36 | QVQLVESGGGLVQAGGSLRLSCAASGFIFVRYAMGWSRPAPGKERELVDAISGSGGRTYYADSVKGRFTISRDNAKNTVYLQMNSLIPEDTAVYYCNVKSYTYGYLPYDYWGQGTQVTVSS | high polyreactivity
37 | QVQLVESGGGLVQAGGSLRLSCAASGSTFRYYAMGWYRQAPGKERELVAAISGSGGRTYYADSVKGRFTISRDNAKNTVYLQMNSLKPEDTAVYYCAASRYQFYWGQGTQVTVSS | high polyreactivity
38 | QVQLVESGGGLVQAGGSLRLSCAASGFTFDKYAMGWYRQAPGKERELVAAITQNGGSTNYADSVKGRFTISRDNAKNTVYLQMNSLKPEDTAVYYCATRSSYLSYVSRMYYWGQGTQVTVSS | high polyreactivity
39 | QVQLVESGGGLVQAGGSLRLSCAASGRTFGPYAMGWYRQAPGKERELVAVISKSGTRTYYADSVKGRFTISRDNAKNTVYLQMNSLKPEETAVYYCAARSPYSYRYDYWGQGTQVTVSS | high polyreactivity
40 | QVQLVESGGGLVQAGGSLRLSFAASGLTFHYYAMGWYIQEPGKERELVAVISSGGSTYYAYSVKGRFTISRDNAKNTVYLQMNSLKPEDTAVYYCAALSSRTYKTGYYTYDYWGQGTQVTVSS | low polyreactivity
41 | QVQLVESGGGLVQAGGSLRLSCAASGLTFGYYVMGWYRQAPGKERELVAAISFRGVSTYYADSVKGRFTISRDNAKKTVDLQMNSLKPEDTAVNYCARRYTSKGGYDYWGQGTQVTVSS | high polyreactivity
42 | QVQLVESGGGLVQAGGSLRLSCAASGHFFFYYPLGWYRQAPGKERELVARFTLSGTSTYYADSVKGRFTISRDNAKNSVYLQMNSLKPEDTAVYYCAAPYFTYGQDDDDYWRQGTQVTVSS | low polyreactivity
43 | QVQLVESGGGLVQAGGILRLSWAASGFTFDSNAMGWYRQAPGKERELVASISSSGSTNYADCVKGRFTISRDNAKNTVDFQMNSLKPEDTAVYSCAAESRYPFIYEYWGQGTEVTVSS | low polyreactivity
